Ends that are not written are not given here.
Legend:
[1] = biological target: T1, microtubule-associated protein 1A/1B light chain 3B protein (human, UniProt Q9GZQ8 1-120); assay: BLI
[2] = biological target: T1, microtubule-associated protein 1A/1B …; assay: fluorescence polarisation
[3] = biological target: GABARAP (human, UniProt O95166 1-117); assay: BLI
GABARAP, sequence (O95166 whole entry): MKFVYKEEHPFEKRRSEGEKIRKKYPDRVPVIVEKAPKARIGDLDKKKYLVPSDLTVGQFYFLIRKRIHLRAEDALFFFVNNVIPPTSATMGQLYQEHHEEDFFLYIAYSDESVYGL

B1: FYCO1 peptide C1289S (peptide)
peptide: DDAVFDIITDEELSQIQEW
HELM: PEPTIDE1{[O=C1N[C@H]2[C@H](CS[C@H]2CCCCC(=O)[*:2])N1].[bAla].[bAla].D.D.A.V.F.D.I.I.T.D.E.E.L.S.Q.I.Q.E.W.[am]}$$$$V2.0
SMILES: CC[C@H](C)[C@H](NC(=O)[C@H](CCC(N)=O)NC(=O)[C@H](CO)NC(=O)[C@H](CC(C)C)NC(=O)[C@H](CCC(=O)O)NC(=O)[C@H](CCC(=O)O)NC(=O)[C@H](CC(=O)O)NC(=O)[C@@H](NC(=O)[C@@H](NC(=O)[C@@H](NC(=O)[C@H](CC(=O)O)NC(=O)[C@H](Cc1ccccc1)NC(=O)[C@@H](NC(=O)[C@H](C)NC(=O)[C@H](CC(=O)O)NC(=O)[C@H](CC(=O)O)NC(=O)CCNC(=O)CCNC(=O)CCCC[C@@H]1SC[C@@H]2NC(=O)N[C@@H]21)C(C)C)[C@@H](C)CC)[C@@H](C)CC)[C@@H](C)O)C(=O)N[C@@H](CCC(N)=O)C(=O)N[C@@H](CCC(=O)O)C(=O)N[C@@H](Cc1c[nH]c2ccccc12)C(N)=O
B1 was tested, and the Kd [1] was 330 nM.

With Fluorescein-DATYTWEHLAWP [fluorescein-labeled K1 peptide] the Kd [2] was 1200 nM.

B2: biotinylated K1 peptide (peptide)
peptide: DATYTWEHLAWP
HELM: PEPTIDE1{[O=C1N[C@H]2[C@H](CS[C@H]2CCCCC(=O)[*:2])N1].[bAla].[bAla].D.A.T.Y.T.W.E.H.L.A.W.P.[am]}$$$$V2.0
SMILES: CC(C)C[C@H](NC(=O)[C@H](Cc1c[nH]cn1)NC(=O)[C@H](CCC(=O)O)NC(=O)[C@H](Cc1c[nH]c2ccccc12)NC(=O)[C@@H](NC(=O)[C@H](Cc1ccc(O)cc1)NC(=O)[C@@H](NC(=O)[C@H](C)NC(=O)[C@H](CC(=O)O)NC(=O)CCNC(=O)CCNC(=O)CCCC[C@@H]1SC[C@@H]2NC(=O)N[C@@H]21)[C@@H](C)O)[C@@H](C)O)C(=O)N[C@@H](C)C(=O)N[C@@H](Cc1c[nH]c2ccccc12)C(=O)N1CCC[C@H]1C(N)=O
Work on B2 yielded a Kd [3] of 390 nM.
